Key:
[1] = biological target: NisC (lantibiotic cyclase) (Lactococcus lactis) (UniProt Q03202); experiment: SEC-MALS; 20 μM NisB and 200 μM prenisin peptide variant kept constant, NisC varied from 10 μM to 160 μM; 50 mM HEPES-NaOH, pH 7.5, 500 mM NaCl
[2] = biological target: NisB (lantibiotic dehydratase) (Lactococcus lactis) (UniProt P20103); experiment: as above
[3] = biological target: NisC (lantibiotic cyclase) (Lactococcus lactis) (UniProt Q03202); experiment: SEC-MALS; 20 μM NisC or 20 μM NisB incubated with 200 μM unmodified prenisin peptide for 1 h at 25 °C; 50 mM HEPES-NaOH, pH 7.5, 500 mM NaCl
[4] = biological target: NisB (lantibiotic dehydratase) (Lactococcus lactis) (UniProt P20103); experiment: as above
[5] = biological target: the molecule itself; experiment: SEC-MALS; isolated NisB or NisC, 200 μL of a 20 μM solution; 50 mM HEPES-NaOH, pH 7.5, 500 mM NaCl

Sequence of NisC (lantibiotic cyclase) (Lactococcus lactis) (Q03202 whole entry): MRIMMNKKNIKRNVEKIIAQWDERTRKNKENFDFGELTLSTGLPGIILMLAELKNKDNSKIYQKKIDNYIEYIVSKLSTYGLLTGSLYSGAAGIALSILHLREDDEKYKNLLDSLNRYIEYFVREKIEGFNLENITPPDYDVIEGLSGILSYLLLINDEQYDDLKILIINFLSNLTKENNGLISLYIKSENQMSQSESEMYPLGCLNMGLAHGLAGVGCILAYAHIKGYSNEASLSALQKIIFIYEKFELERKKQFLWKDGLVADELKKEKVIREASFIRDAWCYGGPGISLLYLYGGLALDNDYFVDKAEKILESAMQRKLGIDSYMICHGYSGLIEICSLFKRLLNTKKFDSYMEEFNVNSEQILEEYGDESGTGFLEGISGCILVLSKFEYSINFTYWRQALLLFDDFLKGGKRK

Molecule | stoichiometry N (prenisin per NisC monomer) [1] | stoichiometry N (prenisin per NisB dimer) [2] | stoichiometry N (per NisC monomer) [3] | stoichiometry N (per NisB dimer) [4] | stoichiometry N [5]
unmodified prenisin peptide | 1 | 1 | 1 | 1 | 
NisB (lantibiotic dehydratase) (enzyme, Lactococcus lactis, Nisin dehydratase NisB of Lactococcus lactis; theoretical molecular weight of the dimer 236.6 kDa; Dimer by MALS-SEC and SAXS; also called dehydratase NisB; apo-NisB; source: L. lactis NZ9000, homologously expressed, purified (IMAC, SEC)) MIKSSFKAQPFLVRNTILCPNDKRSFTEYTQVIETVSKNKVFLEQLLLANPKLYDVMQKYNAGLLKKKRVKKLFESIYKYYKRSYLRSTPFGLFSETSIGVFSKSSQYKLMGKTTKGIRLDTQWLIRLVHKMEVDFSKKLSFTRNNANYKFGDRVFQVYTINSSELEEVNIKYTNVYQIISEFCENDYQKYEDICETVTLCYGDEYRELSEQYLGSLIVNHYLISNLQKDLLSDFSWNTFLTKVEAIDEDKKYIIPLKKVQKFIQEYSEIEIGEGIEKLKEIYQEMSQILENDNYIQIDLISDSEINFDVKQKQQLEHLAEFLGNTTKSVRRTYLDDYKDKFIEKYGVDQEVQITELFDSTFGIGAPYNYNHPRNDFYESEPSTLYYSEEEREKYLSMYVEAVKNHNVINLDDLESHYQKMDLEKKSELQGLELFLNLAKEYEKDIFILGDIVGNNNLGGASGRFSALSPELTSYHRTIVDSVERENENKEITSCEIVFLPENIRHANVMHTSIMRRKVLPFFTSTSHNEVLLTNIYIGIDEKEKFYARDISTQEVLKFYITSMYNKTLFSNELRFLYEISLDDKFGNLPWELIYRDFDYIPRLVFDEIVISPAKWKIWGRDVNSKMTIRELIQSKEIPKEFYIVNGDNKVYLSQKNPLDMEILESAIKKSSKRKDFIELQEYFEDENIINKGEKGRVADVVVPFIRTRALGNEGRAFIREKRVSVERREKLPFNEWLYLKLYISINRQNEFLLSYLPDIQKIVANLGGNLFFLRYTDPKPHIRLRIKCSDLFLAYGSILEILKRSRKNRIMSTFDISIYDQEVERYGGFDTLELSEAIFCADSKIIPNLLTLIKDTNNDWKVDDVSILVNYLYLKCFFQNDNKKILNFLNLVSTKKVKENVNEKIEHYLKLLKVNNLGDQIFYDKNFKELKHAIKNLFLKMIAQDFELQKVYSIIDSIIHVHNNRLIGIERDKEKLIYYTLQRLFVSEEYMK |  |  |  |  | 2
